Experimental data reported in patent US20220195021A1 (ANWITA BIOSCIENCES, published 2022).

Columns and labels:
mouse serum albumin = target: T1, mouse serum albumin (mouse, UniProt P07724 25-608); assay: BLI (OCTET RED96), VHH-IgG1-Fc on protein A biosensor, pH 7.4
T1 construct: also called MuSA
Method: (§1) The VHH anti-albumin antibodies were evaluated for their ability to interact with human, monkey, and mouse serum albumins at different pH values, e.g., pH 7.4 or pH 5.5 to simulate the pH of an acidified endosome. Briefly, a VHH anti-albumin antibody was fused onto a human IgG1-Fc. The expressed protein was then loaded onto a protein A biosensor (OCTET® RED96). The biosensor was in turn dipped into a solution containing a human, monkey, or mouse serum at three or more different concentrations, e.g., 50, 100, or 200 nM, or 100, 200, or 400 nM. Primary experimental data was analyzed with global fitting to determine a dissociation constant (KD). The results are summarized in Table 7 (pH 5.5) and Table 8 (pH 7.4), wherein A represents a value no greater than 10 nM, B represents a value greater than 10 nM but no greater than 100 nM, and C represents a value greater than 100 nM but no greater than 500 nM.

human serum albumin [1] = target: T2, human serum albumin (human, UniProt P02768 25-609); assay: BLI (OCTET RED96), VHH-IgG1-Fc on protein A biosensor, albumin in solution, pH 5.5; grade legend in paragraph 477
T2 construct: The immunogen was rice-expressed HSA (Sigma A9731); also called HSA
Method: as §1

monkey serum albumin [2] = target: T3, monkey serum albumin (monkey (cynomolgus monkey in paragraph 472), UniProt A2V9Z4 25-608); assay: BLI (OCTET RED96), VHH-IgG1-Fc on protein A biosensor, albumin in solution, pH 7.4; grade legend in paragraph 477
T3 construct: also called cynomolgus monkey serum albumin; CySA
Method: as §1

human serum albumin [3] = target: T2, human serum albumin; assay: as above
Method: as §1

human serum albumin [4] = target: T2, human serum albumin; assay: BLI (OCTET RED96), VHH-IgG1-Fc on protein A biosensor, pH 7.4
Method: as §1

monkey serum albumin [5] = target: T3, monkey serum albumin; assay: as above
Method: as §1

binding result (mouse serum albumin)	Binder	also measured
no binding	anti-HSA VHH antibody A10 fused onto a human IgG1-Fc (Fc fusion, Llama VHH; also called Ab A10; not shown: human IgG1 Fc) QVQLVESGGGLVQAGGSLRLSCLASGGTFSSYAMGWFRQAPGKEREFVAAISWKSSTYYTDSVKGRFTISRDNAKNTVYLQMNSLTPEDTAVYYCAADPTGSYDQPWYDYWGQGTQVTVSS	
	anti-HSA VHH antibody A8 fused onto a human IgG1-Fc (Fc fusion, Llama VHH; also called Ab A8; not shown: human IgG1 Fc) QVQLVESGGGLVQPGGSLRLSCAASGSTWSINTLAWYRQAPGKQRDLVARISSGGSTHYADSVKGRFTVSRDNAENTLVLQMNSLKPEDTAVYYCYAQSTWYPPSWGQGTQVTVSS	Kd (human serum albumin [1]): ≤ 10 nM
	humanized anti-HSA VHH antibody A19 fused onto a human IgG1-Fc (Fc fusion, also called Ab A19; anti-HSA A19; not shown: human IgG1 Fc) EVQLVESGGGLVQPGGSLRLSCAASGSTWSINTLAWYRQAPGKQRDLVARISSGGSTYYADSVKGRFTISRDNSKNTLYLQMNSLRAEDTAVYYCYAQSTWYPPSWGQGTLVTVSS	Kd (monkey serum albumin [2]): ≤ 10 nM
no binding	anti-HSA VHH antibody A7 fused onto a human IgG1-Fc (Fc fusion, Llama VHH; also called Ab A7; not shown: human IgG1 Fc) QVQLVESGGGLVQAGGSLRLSCAASGRSVSLYHVGWFRHTPGKEREFVAATAWHDGSTSYADSVKGRFTISRDSAKNTVFLQMSSLQPEDTAVYYCAADPGGSSWSQPWYDYWGQGTQVTVSS	
no binding	anti-HSA VHH antibody A9 fused onto a human IgG1-Fc (Fc fusion, Llama VHH; also called Ab A9; not shown: human IgG1 Fc) QVQLVESGGGLVQAGGSLRLSCAASGRTFSNDAMGWFRQAPGKERVFVATISWKSSTYYADSVKGRFTISRDHAKNTVYLQMNNLKPEDTAVYYCVADPYGLGFNPSDYDYWGQGTQVTVSS	Kd (human serum albumin [3]): ≤ 10 nM
no binding	anti-HSA VHH antibody A18 fused onto a human IgG1-Fc (Fc fusion, Llama VHH; also called Ab A18; not shown: human IgG1 Fc) QEQLVESGGGLVQAGGSLRLSCAASTRTINIYAMAWFRQAPGKEREFVAAVTWSGLTRDYADSVKGRFTISRDNPKNTLYLQMNSLQPEDTAVYYCAAGRYSTGTHDYDYWGQGTQVTVSS	binding result (human serum albumin [4]): no binding; binding result (monkey serum albumin [5]): no binding
no binding	anti-HSA VHH antibody A15 fused onto a human IgG1-Fc (Fc fusion, Llama VHH; also called Ab A15; not shown: human IgG1 Fc) QVQLVESGGGLVQPGGSLRLSCAASGFAFRGFGMSWVRQAPGKGFEWVSSINNGGSDTRYADSVKGRFTISRDNARNTLYLQMNSLKPEDTAVYYCAIGGPGASPSGQGTQVTVSS	
no binding	humanized anti-HSA VHH antibody A20 fused onto a human IgG1-Fc (Fc fusion, also called Ab A20; anti-HSA A20; not shown: human IgG1 Fc) QVQLVESGGGVVQPGGSLRLSCAASGFAFRGFGMSWVRQAPGKGLEWVSSINNGGSDTYYADSVKGRFTISRDNSKNTLYLQMNSLRAEDTAVYYCAIGGPGASPSGQGTQVTVSS	
no binding	anti-HSA VHH antibody A14 fused onto a human IgG1-Fc (Fc fusion, Llama VHH; also called Ab A14; not shown: human IgG1 Fc) QVQLVESGGGLVQPGGSLRLSCAASGFTFRGFGMSWVRQAPGKGFEWVSSINSGGEDTRYSDSVKGRFTISRDNARNTLYLQMNSLKPEDTAVYYCAIGGAGATPSGQGTQVTVSS	
no binding	anti-HSA VHH antibody A12 fused onto a human IgG1-Fc (Fc fusion, Llama VHH; also called Ab A12; not shown: human IgG1 Fc) EVQLVESGGGLVQPGGSLRLSCAASGFTFRGFGMSWVRRAPGKEFEWVSSINGGGEDTRYSDSVKGRFTISRDNARNTLYLQMNSLKPEDSAVYYCAIGGPGATPSGPGTQVTVSS	
no binding	anti-HSA VHH antibody A3 fused onto a human IgG1-Fc (Fc fusion, Llama VHH; also called Ab A3; not shown: human IgG1 Fc) QVQLVESGGGLVQAGGSLRLSCAASGRTFSIYDMGWFRQAPGKEREFVAATNLRGVSTRYADSVKGRFTISGDNAKNTVSLQMNSLIPEDTAVYYCAAAVSNWLAKDPSAYSYWGQGTQVTVSS	Kd (human serum albumin [3]): ≤ 10 nM
no binding	anti-HSA VHH antibody A13 fused onto a human IgG1-Fc (Fc fusion, Llama VHH; also called Ab A13; not shown: human IgG1 Fc) QVQLVESGGGSVQPGGSLRLSCAASGRNFNPMGWFRQAPGKQRESVAAIGTDGSTKYADSVKGRFTISRDNGKNTVYLQMNSLKSEDTAVYYCNVGGWGISWFPWGRGTQVSVSS	
no binding	anti-HSA VHH antibody A17 fused onto a human IgG1-Fc (Fc fusion, Llama VHH; also called Ab A17; not shown: human IgG1 Fc) QVQLVESGGELVQAGGSLRLSCVVSGRTFRTRTMGWFRQAPGKEREYVAHISANGPITDYSDSVKGRFAISRDNAKNTVNLQMNSLKPEDTAVYYCALHNGIGVRTVPSQYDSWGQGTQVTVSS	binding result (monkey serum albumin [5]): no binding
no binding	anti-HSA VHH antibody A1 fused onto a human IgG1-Fc (Fc fusion, Llama VHH; also called Ab A1; not shown: human IgG1 Fc) QVQLVESGGGLVQPGGSLRLSCAASGRIFSTYAMGWFRQPPGKEREFVASINRSGDSTYYADSVKGRFTISRDNAKNTGYLQMSSLKPEDTAVYYCAADSDGIGWFNSFEYDYWGRGTQVTVSS	Kd (human serum albumin [3]): ≤ 10 nM; Kd (monkey serum albumin [2]): ≤ 10 nM
no binding	anti-HSA VHH antibody A4 fused onto a human IgG1-Fc (Fc fusion, Llama VHH; also called Ab A4; not shown: human IgG1 Fc) QVQLVESGGGLVQPGGSLRLSCAASGRIFSTYAMGWFRQPPGKEREFVASINRSGDSTYYADSVKGRFTISRDDAKNMGYLQMSSLKPEDTAVYYCAADSDGIGWFNSFEYDYWGRGTQVTVSS	Kd (monkey serum albumin [2]): ≤ 10 nM
no binding	anti-HSA VHH antibody A2 fused onto a human IgG1-Fc (Fc fusion, Llama VHH; also called Ab A2; not shown: human IgG1 Fc) QVQLVESGGGLVQAGGSLRLSCAASGRSVSLYHVGWFRHTPGKEREFVAATAWHDGSTSYADSVKGRFTISRNNAKNTVYLQMNSLQPEDTAVYYCAGEAKLGGIYSRWRDYEYWGQGTQVTVSS	Kd (human serum albumin [3]): ≤ 10 nM; Kd (monkey serum albumin [2]): ≤ 10 nM
no binding	anti-HSA VHH antibody A6 fused onto a human IgG1-Fc (Fc fusion, Llama VHH; also called Ab A6; not shown: human IgG1 Fc) QVQLVESGGGLVQAGGSLRLSCAASGRSVSLYHVGWFRHTPGKEREFVAATAWHDGSTSYADSVKGRFTISRNNAKNTVYLQMNSLQPEDTAVYYCAGEAKLGGIYSRWRDYEYWGQGTQVTVSS	Kd (human serum albumin [3]): ≤ 10 nM; Kd (monkey serum albumin [2]): ≤ 10 nM
no binding	anti-HSA VHH antibody A16 fused onto a human IgG1-Fc (Fc fusion, Llama VHH; also called Ab A16; not shown: human IgG1 Fc) QVQLVESGGGLVQAGGTLRLSCTASGSTFRGNGMAWHRQAPGKEREFVAYMGMTDRITYAESVKGRFTLSRDDAKNRVYLHMNNLEVEDTAVYYCTAFGSWGQGTQVTVSS	binding result (monkey serum albumin [5]): no binding
no binding	anti-HSA VHH antibody A11 fused onto a human IgG1-Fc (Fc fusion, Llama VHH; also called Ab A11; not shown: human IgG1 Fc) QVQVVESGGGLVQPGGSLRLSCAASGMSSANVMGWYRQVPGNQRELVARITSSGRTMYSDSVLGRFTISRGGAGNTADLQMNMLKPEDTAIYICNIRILGSFDPDSGYWGQGTQVTVSS	binding result (human serum albumin [4]): no binding; binding result (monkey serum albumin [5]): no binding
